Experimental data published in patent publication US6613329.

Columns and labels:
[1] = molecular target: Crotalus durissus terrificus venom; assay: ELISA, venom-coated wells (5 µg/ml); undiluted
[2] = molecular target: Crotalus durissus terrificus venom; assay: ELISA, venom-coated wells; 1:125
[3] = molecular target: Crotalus durissus terrificus venom; assay: ELISA, venom-coated wells; 1:25
[4] = molecular target: Crotalus durissus terrificus venom; assay: ELISA, venom-coated wells; 1:625
[5] = molecular target: Crotalus durissus terrificus venom; assay: ELISA, venom-coated wells (5 µg/ml); 1:3125
[6] = molecular target: Crotalus durissus terrificus venom; assay: ELISA, venom-coated wells; 1:5
[7] = molecular target: Crotalus durissus terrificus venom; assay: ELISA, venom-coated wells; 1:3125
[8] = molecular target: Crotalus durissus terrificus venom; assay: ELISA, venom-coated wells; 1:62,500
[9] = molecular target: Crotalus durissus terrificus venom; assay: ELISA, venom-coated wells (5 µg/ml); 1:5
[10] = molecular target: Crotalus durissus terrificus venom; assay: ELISA, venom-coated wells (5 µg/ml); 1:25
[11] = molecular target: Crotalus durissus terrificus venom; assay: ELISA, venom-coated wells (5 µg/ml); 1:125
[12] = molecular target: Crotalus durissus terrificus venom; assay: ELISA, venom-coated wells (5 µg/ml); 1:625
[13] = molecular target: Crotalus durissus terrificus venom; assay: ELISA, venom-coated wells; 1:312,500

Substance “preimmune chicken IgY (PEG prep) (antibody)” has an ELISA absorbance [1] of 0.003 absorbance, an ELISA absorbance [2] of less than 0 absorbance and an ELISA absorbance [3] of 0.016 absorbance. It also gave an ELISA absorbance [4] of less than 0 absorbance, an ELISA absorbance [5] of 0.002 absorbance and an ELISA absorbance [6] of less than 0 absorbance. For the same substance, the ELISA absorbance [7] was less than 0 absorbance, the ELISA absorbance (absorbance (412 nm filter)) [8] was 0.001 and the ELISA absorbance [9] was less than 0 absorbance. For the same substance, the ELISA absorbance [10] was 0 absorbance, the ELISA absorbance [11] was 0.003 absorbance and the ELISA absorbance [12] was 0 absorbance. For the same substance, the ELISA absorbance (absorbance (412 nm filter)) [13] was 0.01.
